Reference: publication PMC4459029, “Effects of receptor tyrosine kinase inhibitors on VEGF165a- and VEGF165b-stimulated gene transcription in HEK-293 cells expressing human VEGFR2” (British Journal of Pharmacology, 2015)
Values joined by “and” are separate entries in the source; they are usually repeats but may differ in a detail not shown here. Equal values may be shown once.

How the values were obtained:
[1] = system: basal NFAT-luciferase activity; assay: basal NFAT-luciferase production in VEGFR2 NFAT cells; type: cell-based, human; settings: no VEGF; P < 0.05 one way ANOVA
Excerpt: HEK-293 cells expressing the human VEGFR2 and an NFAT reporter gene were provided by Promega Corporation. The NFAT reporter gene contained an NFAT response element linked via a minimal promoter to the firefly luciferase gene luc2P containing a human sequence enriched in proline (P), glutamic acid (E), serine (S) and threonine (T) protein destabilization sequence (Voon et al., [2005]). VEGFR2 NFAT cells were maintained in DMEM media supplemented with 10% FCS and 0.5% G418 in a humidified 5% CO2/95% air atmosphere at 37°C.
VEGFR2 NFAT cells were seeded in a T75 flask at 5 × 10^6 cells per flask using DMEM +10%FCS and incubated at 37°C in a 5% CO2/95% air atmosphere for 3 days until the cells were 100% confluent. On the fourth day, cells were washed with PBS and detached using 3 mL Versene® (ETDA 0.02% in PBS). Once cells had detached, 6 mL of DMEM +0.1%BSA was added and the cells were counted using a haemocytometer. […] After the 5 h incubation, 100 μL ONE-Glo Luciferase Assay reagent was added to each well and luminescence was measured according to the manufacturer's instructions on a Topcount platereader (Perkin Elmer, Llantrisant, UK).

human VEGFR2 = target: T1, human VEGFR2 (Homo sapiens, UniProt P35968); assay: VEGFR2-stimulated NFAT-luciferase reporter gene activity in HEK-293 cells; type: cell-based
T1 construct: host or cells: HEK-293
Protocol: HEK-293 cells expressing the human VEGFR2 and an NFAT reporter gene were provided by Promega Corporation.
On the fourth day, cells were washed with PBS and detached using 3 mL Versene® (ETDA 0.02% in PBS). Once cells had detached, 6 mL of DMEM +0.1%BSA was added and the cells were counted using a haemocytometer. Cells were centrifuged at 200× g for 5 min, resuspended in DMEM +0.1%BSA and seeded at a density of 4 × 10^4 cells per well in 80 μL DMEM +0.1%BSA in white-sided, clear flat-bottomed 96-well plates (Greiner, Stonehouse, UK), which had been coated with 0.01 mg·mL^−1 poly-D-lysine in PBS for 30 min and washed with DMEM. […] After the 5 h incubation, 100 μL ONE-Glo Luciferase Assay reagent was added to each well and luminescence was measured according to the manufacturer's instructions on a Topcount platereader (Perkin Elmer, Llantrisant, UK).
All data were fitted using non-linear regression in Prism 6 (GraphPad Software, San Diego, CA, USA).
A comparison of the extra sum of squares that resulted from the analysis with separate EC50 or Emax values (over that with one of the parameters shared) using the F-test (Prism 6) then allowed for statistical analysis of the difference between EC50 or Emax values. […]

T1 sequence (P35968 20-1356): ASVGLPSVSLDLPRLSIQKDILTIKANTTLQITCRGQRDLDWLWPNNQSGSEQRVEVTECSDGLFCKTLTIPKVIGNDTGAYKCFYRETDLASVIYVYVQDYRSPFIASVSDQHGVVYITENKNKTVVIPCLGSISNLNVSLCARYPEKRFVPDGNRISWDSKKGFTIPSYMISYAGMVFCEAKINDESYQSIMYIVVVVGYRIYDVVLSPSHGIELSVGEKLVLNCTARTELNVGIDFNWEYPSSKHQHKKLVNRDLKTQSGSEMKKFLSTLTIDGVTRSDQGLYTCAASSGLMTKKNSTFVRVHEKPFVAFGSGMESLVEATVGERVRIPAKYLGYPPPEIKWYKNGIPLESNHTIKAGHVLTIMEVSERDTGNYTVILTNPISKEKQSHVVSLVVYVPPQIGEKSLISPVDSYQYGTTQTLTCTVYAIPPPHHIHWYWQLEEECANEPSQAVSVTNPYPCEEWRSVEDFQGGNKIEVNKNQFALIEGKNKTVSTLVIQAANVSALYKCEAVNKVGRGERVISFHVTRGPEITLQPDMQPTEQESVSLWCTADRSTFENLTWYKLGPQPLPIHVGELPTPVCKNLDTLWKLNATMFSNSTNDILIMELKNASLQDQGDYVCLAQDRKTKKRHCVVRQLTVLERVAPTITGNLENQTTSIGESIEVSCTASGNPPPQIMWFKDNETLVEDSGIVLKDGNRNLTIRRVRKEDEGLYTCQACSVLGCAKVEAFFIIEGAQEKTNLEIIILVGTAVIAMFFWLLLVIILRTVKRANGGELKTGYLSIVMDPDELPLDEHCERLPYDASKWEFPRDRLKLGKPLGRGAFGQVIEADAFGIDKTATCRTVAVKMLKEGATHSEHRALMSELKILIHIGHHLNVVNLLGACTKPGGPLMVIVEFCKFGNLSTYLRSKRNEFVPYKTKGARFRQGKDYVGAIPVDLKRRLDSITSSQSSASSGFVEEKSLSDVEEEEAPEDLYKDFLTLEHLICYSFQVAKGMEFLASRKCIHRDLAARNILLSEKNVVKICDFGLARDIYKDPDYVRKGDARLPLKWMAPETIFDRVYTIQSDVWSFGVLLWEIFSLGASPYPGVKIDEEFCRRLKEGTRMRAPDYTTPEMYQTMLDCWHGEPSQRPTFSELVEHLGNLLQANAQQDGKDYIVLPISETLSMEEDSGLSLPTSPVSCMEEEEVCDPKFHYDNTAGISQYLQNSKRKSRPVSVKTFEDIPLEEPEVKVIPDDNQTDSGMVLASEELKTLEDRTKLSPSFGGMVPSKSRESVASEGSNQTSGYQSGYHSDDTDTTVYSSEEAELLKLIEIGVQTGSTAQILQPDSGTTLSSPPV

| −Log EC50 (human VEGFR2; agonist-stimulated NFAT-luciferase response, 5 h incubation) | pKA at VEGFR2 (operational model) (human VEGFR2; partial agonist fit) | Molecule | concentration giving significant inhibition of basal NFAT-luciferase response [1] |
| --- | --- | --- | --- |
| – | – | COc1cc2c(Oc3ccc4[nH]c(C)cc4c3F)ncnc2cc1OCCCN1CCCC1 [Cediranib] | above 10 nM |
| 9.21 ± 0.08 | 8.83 and 8.8 | VEGF165b: VEGF-A exon 8 splice variant, lower-efficacy partial agonist at VEGFR2, from R&D systems (protein, disulfide-linked homodimer; natural exon 8b splice isoform (VEGF165b); limits are the mature chain after removal of the 26-residue signal pep) APMAEGGGQNHHEVVKFMDVYQRSYCHPIETLVDIFQEYPDEIEYIFKPSCVPLMRCGGCCNDEGLECVPTEESNITMQIMRIKPHQGQHIGEMSFLQHNKCECRPKKDRARQENPCGPCSERRKHLFVQDPQTCKCSCKNTDSRCKARQLELNERTCRSLTRKD | – |
